{
  "source": "paper PMC10437922",
  "about": "“DNAJB3 attenuates ER stress through direct interaction with AKT” (PLOS ONE, 2023)",
  "binders": {"B1": {"name": "His-DNAJB3 (natural protein)", "chain": "not shown", "notes": "6xHIS residues'; also called hDNAJB3; pH6K-DNAJB3; source: E. coli BL21 (DE3), purified (Ni-NTA, gel filtration Superdex 200)"}},
  "molecular_target": "T1, His-AKT1 (human, UniProt P31749 1-480)",
  "T1 construct": "'human' stands only before DNAJB3; also called pH6K-AKT1; source: E. coli BL21 (DE3), purified (Ni-NTA, gel filtration Superdex 200)",
  "T1 sequence (P31749 whole entry)": "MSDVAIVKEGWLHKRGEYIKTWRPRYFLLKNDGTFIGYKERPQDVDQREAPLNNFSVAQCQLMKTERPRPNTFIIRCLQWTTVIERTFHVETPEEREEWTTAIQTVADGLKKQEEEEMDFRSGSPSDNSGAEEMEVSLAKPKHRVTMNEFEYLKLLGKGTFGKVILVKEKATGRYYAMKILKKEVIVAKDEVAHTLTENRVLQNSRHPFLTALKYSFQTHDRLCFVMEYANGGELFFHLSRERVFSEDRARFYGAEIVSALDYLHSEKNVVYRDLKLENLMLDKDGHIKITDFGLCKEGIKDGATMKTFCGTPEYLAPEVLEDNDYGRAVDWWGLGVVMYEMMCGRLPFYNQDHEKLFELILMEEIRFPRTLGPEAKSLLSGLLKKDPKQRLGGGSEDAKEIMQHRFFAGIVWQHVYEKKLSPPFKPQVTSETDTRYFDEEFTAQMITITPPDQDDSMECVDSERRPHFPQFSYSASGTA",
  "assay": "ITC; DNAJB3 (250 uM, syringe) titrated into 20 uM protein in the cell; 25°C; 25 mM Tris-HCl pH 8.0, 150 mM NaCl, 1 mM DTT; one-site binding model",
  "details": "both partners purified",
  "data": [
    {"binder": "B1", "values": [
      {"measurement": "Kd", "value": "~62", "unit": "µM"},
      {"measurement": "stoichiometry N", "value": 0.84}
    ]}
  ]
}
